The source of these data is patent US20090186811A1, “Y2 Selective Receptor Agonists for Therapeutic Interventions” (priority 2004, published 2009).

Non-standard residues stand in square brackets, D forms with d. Primed or numbered codes have the meaning given here. No end group written: not given here. Aoc′ = not defined here

One may read the IC50 as the concentration at which inhibition is half-maximal. A low value points to higher potency.

In test [1] the target is T1, human Y2 receptor (human), P49146.
T1 chain: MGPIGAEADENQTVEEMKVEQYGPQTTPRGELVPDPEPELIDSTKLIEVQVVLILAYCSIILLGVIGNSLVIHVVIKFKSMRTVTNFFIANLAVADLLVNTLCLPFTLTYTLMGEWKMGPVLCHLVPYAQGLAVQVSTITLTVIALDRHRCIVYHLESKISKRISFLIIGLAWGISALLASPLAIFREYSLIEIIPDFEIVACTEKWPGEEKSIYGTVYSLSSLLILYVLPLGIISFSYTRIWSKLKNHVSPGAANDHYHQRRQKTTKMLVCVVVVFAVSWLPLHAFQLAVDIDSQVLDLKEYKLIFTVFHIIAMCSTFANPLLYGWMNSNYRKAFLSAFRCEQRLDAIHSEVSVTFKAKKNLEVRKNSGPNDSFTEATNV
Description: competition binding, 125I-PYY displaced, COS-7 cells with human Y2.

The target of test [2] is T2, human Y1 receptor (human), P25929.
T2 chain: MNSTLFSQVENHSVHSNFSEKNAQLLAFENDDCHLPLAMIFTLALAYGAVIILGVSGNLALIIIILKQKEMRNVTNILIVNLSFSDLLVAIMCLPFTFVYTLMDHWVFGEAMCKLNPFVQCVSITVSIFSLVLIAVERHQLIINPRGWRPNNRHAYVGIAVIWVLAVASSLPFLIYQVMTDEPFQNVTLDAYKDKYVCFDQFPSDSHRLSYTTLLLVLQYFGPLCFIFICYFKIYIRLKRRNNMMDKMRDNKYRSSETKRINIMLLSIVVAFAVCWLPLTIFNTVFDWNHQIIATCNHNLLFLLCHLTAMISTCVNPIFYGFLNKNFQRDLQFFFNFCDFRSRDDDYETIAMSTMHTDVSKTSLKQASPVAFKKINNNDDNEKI
Description: cell-based or functional assay.

For test [3], the target named is human Y4 receptor (human), P50391. In words: cell-based or functional assay.
Test [4] deals with T1, human Y2 receptor (human), P49146. Description: cell-based or functional assay.
Test [5] deals with T3, human Y5 receptor (human), Q15761.
T3 chain: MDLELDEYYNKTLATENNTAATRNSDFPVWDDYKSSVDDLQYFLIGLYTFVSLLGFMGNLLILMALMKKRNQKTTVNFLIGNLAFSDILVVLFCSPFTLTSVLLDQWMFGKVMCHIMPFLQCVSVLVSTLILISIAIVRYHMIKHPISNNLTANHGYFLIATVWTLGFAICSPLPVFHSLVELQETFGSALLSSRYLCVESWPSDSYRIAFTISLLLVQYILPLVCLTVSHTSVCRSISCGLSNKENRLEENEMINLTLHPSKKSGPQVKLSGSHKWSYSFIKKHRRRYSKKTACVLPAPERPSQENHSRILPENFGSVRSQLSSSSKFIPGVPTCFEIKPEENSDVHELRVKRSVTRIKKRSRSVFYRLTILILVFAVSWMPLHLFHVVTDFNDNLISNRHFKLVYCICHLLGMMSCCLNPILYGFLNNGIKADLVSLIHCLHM
In words: cell-based or functional assay.

Test [6] addresses human Y4 receptor (human), P50391. Description: competition binding, 125I-PP displaced, COS-7 cells with human Y4.

human Y4 receptor (human), P50391, sequence (P50391 whole entry): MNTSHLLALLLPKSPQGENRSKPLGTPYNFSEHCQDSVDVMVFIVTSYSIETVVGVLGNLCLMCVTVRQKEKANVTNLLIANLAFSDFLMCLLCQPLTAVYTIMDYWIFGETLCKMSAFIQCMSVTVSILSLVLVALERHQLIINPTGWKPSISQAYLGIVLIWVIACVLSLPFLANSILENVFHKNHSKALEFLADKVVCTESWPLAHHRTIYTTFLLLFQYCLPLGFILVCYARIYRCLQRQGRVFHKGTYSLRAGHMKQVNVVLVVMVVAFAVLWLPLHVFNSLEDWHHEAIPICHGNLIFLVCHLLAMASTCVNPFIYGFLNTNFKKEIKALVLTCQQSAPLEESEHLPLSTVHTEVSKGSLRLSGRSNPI

YCIK[Aoc′]RH[dC]LNLVTRQRY (cysteine pairing not given here; reading uncertain) [[Cys2, Aoc5-24, D-Cys27]PYY]: the IC50 in test [1] worked out at 0.87 nM; in test [6], 267 nM. Also, the EC50 (inositol phosphate turnover) in test [2] was greater than 1000 nM; in test [3] it was greater than 1000 nM; in test [4], 3.7 nM; in test [5] it was greater than 1000 nM.
